In the supplement of paper PMC5998384:

Key:
HeLa Kyoto [1] = assay: solubility in G1/S (NP-40 vs SDS abundance) (log2 ratio); higher = more soluble; details: cell cycle stage: G1/S
HeLa Kyoto [2] = assay: thermal stability score vs G1/S (z-score of summed log2 fold changes over temperatures); higher = more thermally stable than in G1/S
HeLa Kyoto [3] = assay: melting temperature (median over replicates), in situ; higher = more thermally stable
HeLa Kyoto [4] = assay: solubility change mitosis vs G1/S (difference of NP-40 vs SDS log2 ratios) (log2 ratio difference); higher = more soluble in mitosis
[5] = cell cycle stage: early G1 (4.5 h after nocodazole release)
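Wherever melting temperature (median over replicates), in situ is given: HeLa Kyoto cells synchronized by double thymidine or nocodazole block, proteins quantified by TMT10plex mass spectrometry, three independent biological replicates.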
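Wherever solubility change mitosis vs G1/S (difference of NP-40 vs SDS log2 ratios) is given: synchronized HeLa Kyoto cells (double thymidine block for G1/S, nocodazole release for mitosis), protein amounts in NP-40 versus SDS lysates quantified by mass spectrometry, three biological replicates.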
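Wherever solubility in G1/S (NP-40 vs SDS abundance) is given: HeLa Kyoto cells arrested at G1/S by double thymidine block, proteins quantified by TMT10plex mass spectrometry in mild NP-40 versus SDS extracts, three biological replicates.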
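Wherever thermal stability score vs G1/S (z-score of summed log2 fold changes over temperatures) is given: synchronized HeLa Kyoto cells, proteins quantified by TMT10plex mass spectrometry, three biological replicates, mitosis taken 0.5 h after nocodazole release, G1/S directly after double thymidine block.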

Row | Substance | solubility in G1/S (log2) (HeLa Kyoto [1]) | thermal stability score (HeLa Kyoto [2]; [5]) | thermal stability score (HeLa Kyoto [2]; cell cycle stage: mitosis) | melting temperature (HeLa Kyoto [3]; cell cycle stage: G1/S) | melting temperature (HeLa Kyoto [3]; cell cycle stage: mitosis) | solubility change mitosis (log2) (HeLa Kyoto [4])
1 | MAENKGGGEAESGGGGSGSAPVTAGAAGPAAQEAEPPLTAVLVEEEEEEGGRAGAEGGAAGPDDGGVAAASSGSAQAASSPAASVGTGVAGGAVSTPAPAPASAPAPGPSAGPPPGPPASLLDTCAVCQQSLQSRREAEPKLLPCLHSFCLRCLPEPERQLSVPIPGGSNGDIQQVGVIRCPVCRQECRQIDLVDNYFVKDTSEAPSSSDEKSEQVCTSCEDNASAVGFCVECGEWLCKTCIEAHQRVKFTKDHLIRKKEDVSESVGASGQRPVFCPVHKQEQLKLFCETCDRLTCRDCQLLEHKEHRYQFLEEAFQNQKGAIENLLAKLLEKKNYVHFAATQVQNRIKEVNETNKRVEQEIKVAIFTLINEINKKGKSLLQQLENVTKERQMKLLQQQNDITGLSRQVKHVMNFTNWAIASGSSTALLYSKRLITFQLRHILKARCDPVPAANGAIRFHCDPTFWAKNVVNLGNLVIESKPAPGYTPNVVVGQVPPGTNHISKTPGQINLAQLRLQHMQQQVYAQKHQQLQQMRMQQPPAPVPTTTTTTQQHPRQAAPQMLQQQPPRLISVQTMQRGNMNCGAFQAHQMRLAQNAARIPGIPRHSGPQYSMMQPHLQRQHSNPGHAGPFPVVSVHNTTINPTSPTTATMANANRGPTSPSVTAIELIPSVTNPENLPSLPDIPPIQLEDAGSSSLDNLLSRYISGSHLPPQPTSTMNPSPGPSALSPGSSGLSNSHTPVRPPSTSSTGSRGSCGSSGRTAEKTSLSFKSDQVKVKQEPGTEDEICSFSGGVKQEKTEDGRRSACMLSSPESSLTPPLSTNLHLESELDALASLENHVKIEPADMNESCKQSGLSSLVNGKSPIRSLMHRSARIGGDGNNKDDDPNEDWCAVCQNGGDLLCCEKCPKVFHLTCHVPTLLSFPSGDWICTFCRDIGKPEVEYDCDNLQHSKKGKTAQGLSPVDQRKCERLLLYLYCHELSIEFQEPVPASIPNYYKIIKKPMDLSTVKKKLQKKHSQHYQIPDDFVADVRLIFKNCERFNEMMKVVQVYADTQEINLKADSEVAQAGKAVALYFEDKLTEIYSDRTFAPLPEFEQEEDDGEVTEDSDEDFIQPRRKRLKSDERPVHIK [TRIM33] | 0.105 | 2.02 | 4.15 | 48.1 °C | 49.7 °C | -0.201
2 | MARGLGAPHWVAVGLLTWATLGLLVAGLGGHDDLHDDLQEDFHGHSHRHSHEDFHHGHSHAHGHGHTHESIWHGHTHDHDHGHSHEDLHHGHSHGYSHESLYHRGHGHDHEHSHGGYGESGAPGIKQDLDAVTLWAYALGATVLISAAPFFVLFLIPVESNSPRHRSLLQILLSFASGGLLGDAFLHLIPHALEPHSHHTLEQPGHGHSHSGQGPILSVGLWVLSGIVAFLVVEKFVRHVKGGHGHSHGHGHAHSHTRGSHGHGRQERSTKEKQSSEEEEKETRGVQKRRGGSTVPKDGPVRPQNAEEEKRGLDLRVSGYLNLAADLAHNFTDGLAIGASFRGGRGLGILTTMTVLLHEVPHEVGDFAILVQSGCSKKQAMRLQLLTAVGALAGTACALLTEGGAVGSEIAGGAGPGWVLPFTAGGFIYVATVSVLPELLREASPLQSLLEVLGLLGGVIMMVLIAHLE [SLC39A7] | -0.392 | -0.93 | -2.25 | 59.2 °C | 57.1 °C | -0.00492
3 | MATAATSPALKRLDLRDPAALFETHGAEEIRGLERQVRAEIEHKKEELRQMVGERYRDLIEAADTIGQMRRCAVGLVDAVKATDQYCARLRQAGSAAPRPPRAQQPQQPSQEKFYSMAAQIKLLLEIPEKIWSSMEASQCLHATQLYLLCCHLHSLLQLDSSSSRYSPVLSRFPILIRQVAAASHFRSTILHESKMLLKCQGVSDQAVAEALCSIMLLEESSPRQALTDFLLARKATIQKLLNQPHHGAGIKAQICSLVELLATTLKQAHALFYTLPEGLLPDPALPCGLLFSTLETITGQHPAGKGTGVLQEEMKLCSWFKHLPASIVEFQPTLRTLAHPISQEYLKDTLQKWIHMCNEDIKNGITNLLMYVKSMKGLAGIRDAMWELLTNESTNHSWDVLCRRLLEKPLLFWEDMMQQLFLDRLQTLTKEGFDSISSSSKELLVSALQELESSTSNSPSNKHIHFEYNMSLFLWSESPNDLPSDAAWVSVANRGQFASSGLSMKAQAISPCVQNFCSALDSKLKVKLDDLLAYLPSDDSSLPKDVSPTQAKSSAFDRYADAGTVQEMLRTQSVACIKHIVDCIRAELQSIEEGVQGQQDALNSAKLHSVLFMARLCQSLGELCPHLKQCILGKSESSEKPAREFRALRKQGKVKTQEIIPTQAKWQEVKEVLLQQSVMGYQVWSSAVVKVLIHGFTQSLLLDDAGSVLATATSWDELEIQEEAESGSSVTSKIRLPAQPSWYVQSFLFSLCQEINRVGGHALPKVTLQEMLKSCMVQVVAAYEKLSEEKQIKKEGAFPVTQNRALQLLYDLRYLNIVLTAKGDEVKSGRSKPDSRIEKVTDHLEALIDPFDLDVFTPHLNSNLHRLVQRTSVLFGLVTGTENQLAPRSSTFNSQEPHNILPLASSQIRFGLLPLSMTSTRKAKSTRNIETKAQVVPPARSTAGDPTVPGSLFRQLVSEEDNTSAPSLFKLGWLSSMTK [COG1] | -0.122 | -0.0852 | 0.918 | 49.8 °C | 49.4 °C | 0.0588
4 | MAFANLRKVLISDSLDPCCRKILQDGGLQVVEKQNLSKEELIAELQDCEGLIVRSATKVTADVINAAEKLQVVGRAGTGVDNVDLEAATRKGILVMNTPNGNSLSAAELTCGMIMCLARQIPQATASMKDGKWERKKFMGTELNGKTLGILGLGRIGREVATRMQSFGMKTIGYDPIISPEVSASFGVQQLPLEEIWPLCDFITVHTPLLPSTTGLLNDNTFAQCKKGVRVVNCARGGIVDEGALLRALQSGQCAGAALDVFTEEPPRDRALVDHENVISCPHLGASTKEAQSRCGEEIAVQFVDMVKGKSLTGVVNAQALTSAFSPHTKPWIGLAEALGTLMRAWAGSPKGTIQVITQGTSLKNAGNCLSPAVIVGLLKEASKQADVNLVNAKLLVKEAGLNVTTSHSPAAPGEQGFGECLLAVALAGAPYQAVGLVQGTTPVLQGLNGAVFRPEVPLRRDLPLLLFRTQTSDPAMLPTMIGLLAEAGVRLLSYQTSLVSDGETWHVMGISSLLPSLEAWKQHVTEAFQFHF [PHGDH] | 0.233 | -2.03 | -1.42 | 55.9 °C | 55.4 °C | 0.0444
5 | TRIOBP | 0.139 | 0.418 | 1.17 | 49.1 °C | 49.3 °C | 0.0573
6 | MPEEMDKPLISLHLVDSDSSLAKVPDEAPKVGILGSGDFARSLATRLVGSGFKVVVGSRNPKRTARLFPSAAQVTFQEEAVSSPEVIFVAVFREHYSSLCSLSDQLAGKILVDVSNPTEQEHLQHRESNAEYLASLFPTCTVVKAFNVISAWTLQAGPRDGNRQVPICGDQPEAKRAVSEMALAMGFMPVDMGSLASAWEVEAMPLRLLPAWKVPTLLALGLFVCFYAYNFVRDVLQPYVQESQNKFFKLPVSVVNTTLPCVAYVLLSLVYLPGVLAAALQLRRGTKYQRFPDWLDHWLQHRKQIGLLSFFCAALHALYSFCLPLRRAHRYDLVNLAVKQVLANKSHLWVEEEVWRMEIYLSLGVLALGTLSLLAVTSLPSIANSLNWREFSFVQSSLGFVALVLSTLHTLTYGWTRAFEESRYKFYLPPTFTLTLLVPCVVILAKALFLLPCISRRLARIRRGWERESTIKFTLPTDHALAEKTSHV [STEAP3] | -0.128 | -0.269 | -2.25 | 53.3 °C | 52.4 °C | -0.0119
7 | MGDAKEAGAEGPPAGAAARGGLSLLSQGESEESSAQGSALFLGGNEVKSRAVVKYSSAPPRTAFARLEEKTDLKLPPANWLRESAKLGPAGTTILGNSKKSKPFSSFGMAYDFIDSVGNDVDVVSDSENIKKLLKIPYSKSHVSMAVHRIGRTLLLDELDIQELFMRSSQTGDWTWLKEFYQRLIDQKWQRKKKSKEHWYQKAILSKFLYYSINGDGAAQPVSSTAEQQESSSSDQTNDSEGASWPAPFEMPSSVSEDPSASSQGSEPLEPSYIVGHVASAPKEQNLITLFNDGEHSQGLKNDFVRNILWTFEDIHMLVGSNMPIFGGGRYPAVSLRLRDNNKPINVLTGIDYWLDNLICNVPELVMCFHVNGIVQKYEMIKTEEIPNLENSNFSTKVIKDIAQNILSFLKSNCTKEGHTYWLFKASGSDIVKLYDLTTLCEETEDKYQNPFTMPVAILLYKVACNMMMKKNQNKKHYGTIRTLLLNCLKLLDKSRHPQIIASANYMLSELFQLDEPKKEENSESPLNENSDESYSEEEEEMPDSDENGSYSTSSDPSDDSKAVAIIKSVGELSVPEKYKSIHQIRPSCAFPVCHDTEERCRLVLSYVLEGLKSVDSSIKKESDLPAADPSTPIPLKYEDESSRGGPEGLEKQMALFLDKMGSLQKGNYSSQSGMIPGSWQHKMKLQLILKSSKAYYVLSDAAMSLQKYGRALRYIKLALQSHDTYCCLCTNMLSEVLLFLSQYLTLCGDIQLMLAQNANNRAAHLEEFHYQTKEDQEILHSLHRESSCQGFAWATDLSTDLESQLSVSCKCYEAANEILQFSDLKSQNPEHYVQVLKRMGNIRNEIGVFYMNQAAALQSERLVSKSVSAAEQQLWKKSFSCFEKGIHNFESIEDATNAALLLCNTGRLMRICAQAHCGAGDELKREFSPEEGLYYNKAIDYYLKALRSLGTRDIHPAVWDSVNWELSTTYFTMATLQQDYAPLSRKAQEQIEKEVSEAMMKSLKYCDVDSVSARQPLCQYRAATIHHRLASMYHSCLRNQVGDEHLRKQHRVLADLHYSKAAKLFQLLKDAPCELLRVQLERVAFAEFQMTSQNSNVGKLKTLSGALDIMVRTEHAFQLIQKELIEEFGQPKSGDAAAAADASPSLNREEVMKLLSIFESRLSFLLLQSIKLLSSTKKKTSNNIEDDTILKTNKHIYSQLLRATANKTATLLERINVIVHLLGQLAAGSAASSNAVQ [EDRF1] | -0.026 | 0.416 | -0.168 | 51 °C | 49.3 °C | -0.0878
8 | MFIKGRAPRAPPRERRRATRGGLRQVVAPPRALGSTSRPHFRRASVCRRRCRKSGGLLAASRKMAAAAVNGAAGFSSSGPAATSGAVLQAATGMYEQLKGEWNRKSPNLSKCGEELGRLKLVLLELNFLPTTGTKLTKQQLILARDILEIGAQWSILRKDIPSFERYMAQLKCYYFDYKEQLPESAYMHQLLGLNLLFLLSQNRVAEFHTELERLPAKDIQTNVYIKHPVSLEQYLMEGSYNKVFLAKGNIPAESYTFFIDILLDTIRDEIAGCIEKAYEKILFTEATRILFFNTPKKMTDYAKKRGWVLGPNNYYSFASQQQKPEDTTIPSTELAKQVIEYARQLEMIV [PSMD8] | 0.278 | -1.02 | -0.0502 | 53.4 °C | 54.5 °C | 0.0108
9 | MDVGELLSYQPNRGTKRPRDDEEEEQKMRRKQTGTRERGRYREEEMTVVEEADDDKKRLLQIIDRDGEEEEEEEEPLDESSVKKMILTFEKRSYKNQELRIKFPDNPEKFMESELDLNDIIQEMHVVATMPDLYHLLVELNAVQSLLGLLGHDNTDVSIAVVDLLQELTDIDTLHESEEGAEVLIDALVDGQVVALLVQNLERLDESVKEEADGVHNTLAIVENMAEFRPEMCTEGAQQGLLQWLLKRLKAKMPFDANKLYCSEVLAILLQDNDENRELLGELDGIDVLLQQLSVFKRHNPSTAEEQEMMENLFDSLCSCLMLSSNRERFLKGEGLQLMNLMLREKKISRSSALKVLDHAMIGPEGTDNCHKFVDILGLRTIFPLFMKSPRKIKKVGTTEKEHEEHVCSILASLLRNLRGQQRTRLLNKFTENDSEKVDRLMELHFKYLGAMQVADKKIEGEKHDMVRRGEIIDNDTEEEFYLRRLDAGLFVLQHICYIMAEICNANVPQIRQRVHQILNMRGSSIKIVRHIIKEYAENIGDGRSPEFRENEQKRILGLLENF [CTNNBL1] | -0.0781 | 3.96 | 7.66 | 47.6 °C | 47.7 °C | 0.207
